Our source for the binding result and fold of the affinity constant values is publication PMC6572768, “THETA system allows one-step isolation of tagged proteins through temperature-dependent protein–peptide interaction” (Communications Biology, 2019).

Assay [1] has as its target T1, recombinant chicken cryptochrome 4, full-length, untagged (chicken).
T1 construct: chicken cryptochrome 4 (cCRY4); last residue Thr529; calculated molecular mass 61,063 Da; also called cCRY4; non-tagged cCRY4; source: budding yeast MaV203, overexpressed, in soluble extract
T1 chain: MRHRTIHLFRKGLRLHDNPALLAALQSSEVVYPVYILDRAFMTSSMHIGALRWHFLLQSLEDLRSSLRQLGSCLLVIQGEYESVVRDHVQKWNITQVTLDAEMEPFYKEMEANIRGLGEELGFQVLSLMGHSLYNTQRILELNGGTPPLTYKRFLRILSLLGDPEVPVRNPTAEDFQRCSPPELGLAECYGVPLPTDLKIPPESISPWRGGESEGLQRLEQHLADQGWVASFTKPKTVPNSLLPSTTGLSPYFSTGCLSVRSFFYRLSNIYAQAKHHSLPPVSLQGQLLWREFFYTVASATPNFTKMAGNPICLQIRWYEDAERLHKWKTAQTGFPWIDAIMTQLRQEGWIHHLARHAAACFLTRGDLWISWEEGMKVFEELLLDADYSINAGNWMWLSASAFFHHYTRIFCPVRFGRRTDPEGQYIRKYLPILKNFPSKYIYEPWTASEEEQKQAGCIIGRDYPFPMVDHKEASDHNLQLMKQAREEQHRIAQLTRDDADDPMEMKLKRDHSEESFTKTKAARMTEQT
Nature of the assay: pull-down; renatured MBP-THETAL-His immobilised on Affi-Gel 15; crude extract mixed with the gel at 4 °C, washed, eluted by warming to 42 °C or 37 °C. As to conditions: one partner purified.

A further assay has as its target T2, GST-cCRY4CCE (chicken).
T2 construct: chicken cryptochrome 4 (cCRY4) C-terminal region, Asp470-Thr529; also called cCRY4 C-terminal extension (CCE)
T2 chain: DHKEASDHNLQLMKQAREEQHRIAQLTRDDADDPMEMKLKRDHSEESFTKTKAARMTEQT
Nature of the assay: ELISA; MBP-C13scFv-His refolded at various pH, dialysed against PBS pH 7.4, titrated on cCRY4CCE; detected with anti-6xHis antibody; EC50 by the Rodbard model. On the technique in general: An ELISA detects its analyte on a solid surface through an enzyme-linked reagent.

Assay [2] addresses C13 monoclonal antibody (mouse). The experiment in a line: ELISA; indirect competitive ELISA at 4, 15, 26 and 37 °C; antibody mixed with serially diluted antigen until equilibrium, then 15 min on a well coated with GST-cCRY4CCE (1 μg/mL for C13 mAb); SM/TBS; affinity constants by fit to a model formula.

B1: MBP-C13scFv-His (scFv, V domains shown)
VH: EVKLEESGGGLVQPGGSLRLSCATSGFTFTDYYMSWVRQPPGKALEWLGFIRNKANVYTTEYSASVKGRFTISRDNSQSILYLQMNTLRAEDSATYYCARDGGYDDGGYAMDYWGQGTSVTVSS
VL: DIVMTQSHKFMSTSVGDRVSITCKASQDVGTAVAWYQQKPGQSPKLLIYWASTRHTGVPDRFTGSGSGTDFTLTISNVQSEDLADYFCQQYSSYPYTFGGGTKLEIK
notes: C13 variable light (VL); (GGGGS)3 linker; C13 variable heavy (VH); Order VL-linker-VH in pET-22b(+); also called MBP-THETAL-His; THETAL; not shown: MBP, N-terminal, kept; His6, C-terminal, kept
As to B1, the binding result (in assay [1]; with GST-cCRY4CCE) was “binds” in each case.

B2: GST-CT9 (peptide)
chain: TKTKAARMTEQT
Molecule B2 registered a fold of the affinity constant at 4 °C over that at 37 °C in assay [2] of 480 times.
